{"source": "patent US20150307846A1", "about": "“GROWTH FACTOR COCKTAIL TO ENHANCE OSTEOGENIC DIFFERENTIATION OF MESENCHYMAL CELLS” (University of Pennsylvania, priority 2012, published 2015)", "system": "human periosteum derived cells (hPDCs)", "assay": "Gene expression of bone markers in hPDCs in 2D culture (Taqman PCR)", "type": "cell-based", "conditions": "two stage protocol, six factors minus one, 4 days", "procedure": "Same experimental design as in A. C) Identification of factors involved in osteoblast maturation. hPDCs were treated with OM and TGFβ1 for 6 days, followed by stimulation with GM (negative control), GM containing six factors or GM supplement with six minus one factor for 4 days. The factors are ascorbic acid (Asc. Ac., 57 μM), TNFα (50 ng/ml), IL6 (10 ng/ml), EGF (20 ng/ml), Ca (6 mM) and Pi (4 mM). To evaluate osteoblast maturation, gene expression of RUNX2, OSX, DLX5, iBSP, OC and RANKL is measured with Taqman PCR. […] Gene expression is expressed as fold increase as compared to the GM condition. […] Gene expression is expressed as fold increase as compared to hPDCs cultured in OM/TGFβ1 (n=3, error bars: standard deviations, *p≦00.05, Mann-Whitney U test).\nCell culture. […] For in vitro osteogenic differentiation assays, passage 6 to passage 9 hPDCs (pool of four different donors) were seeded at 3000 cells/cm^2 in either 96-well plates to assess proliferation and alkaline phosphatase activity or in the middle eight wells of a 24-well plate for quantifying gene expression. […]\nQuantitative PCR. […]", "data": [{"molecule": "EGF: growth factor ligand, 20 ng/ml (protein, UniProt P01133 23-1207, looked up, Pro-epidermal growth factor, growth factor ligand, 20 ng/ml) Pro-epidermal growth factor: PQHWSCPEGTLAGNGNSTCVGPAPFLIFSHGNSIFRIDTEGTNYEQLVVDAGVSVIMDFHYNEKRIYWVDLERQLLQRVFLNGSRQERVCNIEKNVSGMAINWINEEVIWSNQQEGIITVTDMKGNNSHILLSALKYPANVAVDPVERFIFWSSEVAGSLYRADLDGVGVKALLETSEKITAVSLDVLDKRLFWIQYNREGSNSLICSCDYDGGSVHISKHPTQHNLFAMSLFGDRIFYSTWKMKTIWIANKHTGKDMVRINLHSSFVPLGELKVVHPLAQPKAEDDTWEPEQKLCKLRKGNCSSTVCGQDLQSHLCMCAEGYALSRDRKYCEDVNECAFWNHGCTLGCKNTPGSYYCTCPVGFVLLPDGKRCHQLVSCPRNVSECSHDCVLTSEGPLCFCPEGSVLERDGKTCSGCSSPDNGGCSQLCVPLSPVSWECDCFPGYDLQLDEKSCAASGPQPFLLFANSQDIRHMHFDGTDYGTLLSQQMGMVYALDHDPVENKIYFAHTALKWIERANMDGSQRERLIEEGVDVPEGLAVDWIGRRFYWTDRGKSLIGRSDLNGKRSKIITKENISQPRGIAVHPMAKRLFWTDTGINPRIESSSLQGLGRLVIASSDLIWPSGITIDFLTDKLYWCDAKQSVIEMANLDGSKRRRLTQNDVGHPFAVAVFEDYVWFSDWAMPSVMRVNKRTGKDRVRLQGSMLKPSSLVVVHPLAKPGADPCLYQNGGCEHICKKRLGTAWCSCREGFMKASDGKTCLALDGHQLLAGGEVDLKNQVTPLDILSKTRVSEDNITESQHMLVAEIMVSDQDDCAPVGCSMYARCISEGEDATCQCLKGFAGDGKLCSDIDECEMGVPVCPPASSKCINTEGGYVCRCSEGYQGDGIHCLDIDECQLGEHSCGENASCTNTEGGYTCMCAGRLSEPGLICPDSTPPPHLREDDHHYSVRNSDSECPLSHDGYCLHDGVCMYIEALDKYACNCVVGYIGERCQYRDLKWWELRHAGHGQQQKVIVVAVCVVVLVMLLLLSLWGAHYYRTQKLLSKNPKNPYEESSRDVRSRRPADTEDGMSSCPQPWFVVIKEHQDLKNGGQPVAGEDGQAADGSMQPTSWRQEPQLCGMGTEQGCWIPVSSDKGSCPQVMERSFHMPSYGTQTLEGGVEKPHSLLSANPLWQQRALDPPHQMELTQ", "values": [{"measurement": "RANKL expression in medium devoid of the factor", "value": "lower levels"}, {"measurement": "role in DLX5 transcription", "value": "required"}]}]}
